This passage reports Kd results from US20260183411A1, “TARGETING SORTILIN” (priority 2024, published 2026).

Bridges are numbered along the chain shown (N, C = ends). Where no end group is shown, it is not given here. Side-chain parts run from the residue outwards. [ ]: non-standard residue; d: D form. tBuAla = CC(C)(C)C[C@H](N)C(=O)O; Tle = CC(C)(C)[C@H](N)C(=O)O; linker = not defined here; Nle = CCCC[C@H](N)C(=O)O; siRNA = not defined here

The target of test [1] is T1, cyno SORT1 (76-753)-His (cyno, UniProt A0A2K5VHG2 74-751).
T1 construct: range 76-753; Amine-coupled to CM5 chip for SPR
T1 sequence: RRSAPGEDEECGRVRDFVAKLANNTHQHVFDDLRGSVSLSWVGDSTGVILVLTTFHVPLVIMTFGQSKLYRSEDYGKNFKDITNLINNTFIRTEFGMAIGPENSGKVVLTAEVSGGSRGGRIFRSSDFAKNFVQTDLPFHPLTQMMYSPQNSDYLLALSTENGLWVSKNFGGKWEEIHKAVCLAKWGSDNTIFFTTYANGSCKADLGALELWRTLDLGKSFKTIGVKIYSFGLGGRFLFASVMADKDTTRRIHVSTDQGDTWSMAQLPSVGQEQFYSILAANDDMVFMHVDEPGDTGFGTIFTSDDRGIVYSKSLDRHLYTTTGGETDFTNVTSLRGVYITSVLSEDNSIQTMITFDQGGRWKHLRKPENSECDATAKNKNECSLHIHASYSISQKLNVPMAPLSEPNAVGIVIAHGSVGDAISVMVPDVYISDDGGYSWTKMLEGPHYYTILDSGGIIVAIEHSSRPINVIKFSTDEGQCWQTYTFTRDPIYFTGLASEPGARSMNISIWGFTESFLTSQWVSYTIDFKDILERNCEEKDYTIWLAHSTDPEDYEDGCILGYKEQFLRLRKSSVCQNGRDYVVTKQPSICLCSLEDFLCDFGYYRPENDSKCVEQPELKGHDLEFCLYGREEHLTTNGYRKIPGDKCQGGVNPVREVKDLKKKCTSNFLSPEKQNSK
In words: SPR (Biacore 8K), SORT1 on CM5 chip, siRNA-peptide conjugate as analyte, 1:1 model. As for the experimental part:
(§1) SPR analysis was performed on Series S CM5 chips (Cytiva) using a Biacore 8K instrument (Cytiva). Sensorgrams were double-referenced by subtracting the response on both a reference flow cell and a blank sample. Human SORT1 (78-755)-His (Acrobiosystems), human SORT1 (78-755)-His(GenScript), mouse SORT1 (76-753)-His (R&D Systems), rat SORT1 (76-752)-His (GenScript), and cyno SORT1 (76-753)-His (GenScript) were diluted to 20-60 μg/mL in 10 mM sodium acetate pH 4.5 buffer and immobilized onto Series S CM5 chips using amine coupling at a flow rate of 10 μL/min for 45-100 s.
(§2) Ten start-up cycles and a blank cycle preceded each analysis run. The runs were performed by sequential injections of analyte (0-20 nM, 3-fold serial dilutions) with a 90 s association and 900 s dissociation at a flow rate of 30 μL/min, followed by two regeneration cycles with 2 M MgCl2 for 90 s at a flow rate of 10 μL/min. […] Five start-up cycles and a blank cycle preceded each analysis run. The runs were performed by sequential injections of analyte (0-25 nM) with a 150 seconds (s) association and 300 s dissociation at a flow rate of 30 μL/min, followed by a regeneration with 2 M MgCl₂ for 200 s at a flow rate of 10 μL/min. The kinetic rate constants (kₐ and kd) and the equilibrium binding constant (Kd) were calculated using a 1:1 kinetic binding model on the Biacore Insight Evaluation Software (Cytiva).
(§3) SPR analysis was performed on Series S CM5 chips (Cytiva) using a Biacore 8K instrument (Cytiva). Sensorgrams were double-referenced by subtracting the response on both a reference flow cell and a blank sample. The SPR analysis was conducted using four different SORT1 species: Human SORT1, Mouse SORT1, Rat SORT1, and Cyno SORT1. The samples were prepared according to the general procedure described above herein. The kinetic rate constants (ka and […]) and the equilibrium binding constant (Kd) were calculated using a 1:1 kinetic binding model on the Biacore Insight Evaluation Software (Cytiva).
Background: SPR reads the build-up and loss of mass on a sensor chip optically.

The target of test [2] is T2, mouse SORT1 (76-753)-His (mouse, UniProt Q6PHU5 76-753).
T2 construct: range 76-753; Amine-coupled to CM5 chip for SPR
T2 sequence (looked up): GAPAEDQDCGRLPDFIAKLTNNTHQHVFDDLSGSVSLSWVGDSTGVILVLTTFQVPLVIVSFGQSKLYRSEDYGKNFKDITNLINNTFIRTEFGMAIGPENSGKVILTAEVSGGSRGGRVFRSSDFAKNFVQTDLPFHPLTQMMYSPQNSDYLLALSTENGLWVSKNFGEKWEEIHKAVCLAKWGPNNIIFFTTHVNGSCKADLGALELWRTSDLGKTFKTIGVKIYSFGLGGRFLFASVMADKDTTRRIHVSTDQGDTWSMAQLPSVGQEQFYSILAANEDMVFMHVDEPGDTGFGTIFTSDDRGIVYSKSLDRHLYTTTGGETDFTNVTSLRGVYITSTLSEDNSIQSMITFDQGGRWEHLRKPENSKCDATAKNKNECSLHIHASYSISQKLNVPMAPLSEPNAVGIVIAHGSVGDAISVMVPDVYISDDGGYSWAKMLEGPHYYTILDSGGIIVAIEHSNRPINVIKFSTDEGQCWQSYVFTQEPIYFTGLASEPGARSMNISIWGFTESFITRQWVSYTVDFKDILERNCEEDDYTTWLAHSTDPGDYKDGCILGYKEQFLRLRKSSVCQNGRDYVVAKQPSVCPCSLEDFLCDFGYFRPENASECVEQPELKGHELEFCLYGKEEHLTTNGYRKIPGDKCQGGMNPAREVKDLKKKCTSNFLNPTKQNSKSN
Described as above. Here is the method: as §1, §2, §3

B1: SORT1 peptide 3 conjugate (peptide)
peptide: RWCENK([linker-siRNA])R[Nle]FTCRQ[Tle][tBuAla]
modifications: disulfide 3-11 (inferred); not fully specified; printed as RWCENKR(Nle)FTCRQ(B13)(F02); reading uncertain
notes: also called SORT1 peptide 3 siRNA conjugate
Take B1: the dissociation constant Kd (commonly the constant that tells how readily two partners part at equilibrium) is 191 nM in test [1] and 178 nM in test [2].
